Key:
[1] = molecular target: fluorescein-labelled CaMKII peptide (Homo sapiens (Human), UniProt Q9UQM7, fluorescein attached to the non-native cysteine added to the N-terminus); assay: fluorescence polarisation/anisotropy; Ca2+ (1 mM CaCl2)
[2] = molecular target: fluorescein-labelled PMCA peptide (Bos taurus (Bovine), UniProt D3K0R6, fluorescein attached to the C-terminal native Lys); assay: as above
fluorescein-labelled PMCA peptide, sequence (D3K0R6 1086-1105): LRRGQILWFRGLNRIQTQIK

fluorescein-labelled CaMKII peptide, sequence (Q9UQM7 other isoform, or with tags, fused parts or gaps): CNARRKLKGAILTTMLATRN

B1: His6-tagged human centrin1 (protein)
chain: MASGFKKPSAASTGQKRKVAPKPELTEDQKQEVREAFDLFDVDGSGTIDAKELKVAMRALGFEPRKEEMKKMISEVDREGTGKISFNDFLAVMTQKMSEKDTKEEILKAFRLFDDDETGKISFKNLKRVANELGENLTDEELQEMIDEADRDGDGEVNEEEFLRIMKKTSLY
[1]
  binding result: no binding
[2]
  binding result: no binding
